The values below come from patent publication US6770448B2, “Fluorescent amyloid Aβ peptides and uses thereof” (The Regents of the University of California, priority 1997, dated 2004).

Data set [1] is described as follows: Gel filtration chromatography (Superdex 75 HR 10/30), oligomeric structure. The class given is physicochemical. Conditions: Superdex 75, Buffer A. For orientation: In gel filtration, larger molecules generally elute earlier.
Procedure: The peptides were dissolved in DMSO for 30 minutes and then ten fold diluted in buffer A at a final protein concentration of 5-10 μM. A 200 μl aliquot was loaded onto a Superdex 75HR 10/30 column and eluted at a rate of 0.4 ml/min.
Gel filtration analysis was performed with a Pharmacia Superdex 75 HR 10/30 column using a Waters 490 multiple wavelength UV absorbance detector and Hewlett Packard 3250 fluorescence detector. Data were collected with a Waters Maxima chromatography data system. The running buffer used was 50 mM Tris, 0.1 M NaCl, pH 7.4 (Buffer A) in the presence of 10% or 2% DMSO. The column was calibrated with the following molecular weight standards: thyroglobulin, bovine serum albumin, ovalbumin, soybean trypsin inhibitor, ubiquitin, aprotinin, and insulin β-chain. The peptides were detected by UV absorbance at 280 nm and by fluorescence at 482 and 520 nm for IAEDANS and FM respectively.
Data set [2] can be described thus: Denaturation (unfolding) of Aβ in DMSO monitored by tyrosine or AEDANS fluorescence. It is filed as physicochemical. The method, then:
FIG. 3 is a graph illustrating the unfolding of Aβ measured by tyrosine fluorescence and 1,5-IAEDANS fluorescence. […] The protein concentration was 5-10 μM of Aβ.
For refolding experiments, samples were incubated in 100% DMSO for 1 hour at room temperature, and refolding was initiated by ten or fifty times dilution of the solvent in Tris buffered solution. The concentration of peptide ranged between 3 and 10 μM.
Absorption measurements were measured with a Perkin Elmer Lambda 3B UV-Vis spectrophotometer. Fluorescence spectra (excitation band pass 4 nm; emission band pass 8 nm) were measured either on an Aminco SLM 48000 or a SPEX Fluorolog F112A spectrofluorometer. Intrinsic tyrosine fluorescence was measured from 285 to 400 nm upon excitation at 275 nm. […] The lifetime measurements for FM were acquired using the 488 nm line of argon ion laser for excitation using a multiharmonic frequency-domain spectrofluorometer (Aminco 48000S).

As to “14C-labeled Aβ 1-40: Aβ synthesized by incorporation of Fmoc-14C-Ala at position 2, 36 mCi/mmol”, in data set [1], the “elution position on gel filtration” value is given as “eluted at the position expected for a dimer”. Turning to “AβC4FM: Aβ with cys in position 4 and labeled with FM”, in data set [2], the “unfolding curve compared with AβC25-AEDANS” value is listed as “identical unfolding curves”. Regarding “AβC7FM: Aβ with cys in position 7 and labeled with FM”, the “unfolding curve compared with AβC25-AEDANS” value in data set [2] is “identical unfolding curves”.
